Source: patent US20120094899A1 (Takeda / Millennium, published 2012)
Non-standard residues stand in square brackets, D forms with d. No end group written: not given here. *: point of attachment. Acetyl(2-(piperazin-1-yl)) = O=C(CN1CCNCC1)*; PEG 20 kDa = methoxypolyethylene glycol 20k; 2Nal = N[C@@H](Cc1ccc2ccccc2c1)C(=O)O; Arg(Me) = CNC(=N)NCCC[C@H](N)C(=O)O; NMeY = CN[C@@H](Cc1ccc(O)cc1)C(=O)O; NMeR = CN[C@@H](CCCNC(=N)N)C(=O)O; Cha = N[C@@H](CC1CCCCC1)C(=O)O; NMeL = CN[C@@H](CC(C)C)C(=O)O; NMeA = CN[C@@H](C)C(=O)O; βAla = NCCC(=O)O

T1: Human FM3 (human, UniProt Q9HB89 1-426)
T1 construct: whole, on cells; Assayed as the membrane fraction of FM3-expressing CHO cells (1.2 mg/mL protein); also called NMUR1; FM3 receptor
T1 sequence (looked up): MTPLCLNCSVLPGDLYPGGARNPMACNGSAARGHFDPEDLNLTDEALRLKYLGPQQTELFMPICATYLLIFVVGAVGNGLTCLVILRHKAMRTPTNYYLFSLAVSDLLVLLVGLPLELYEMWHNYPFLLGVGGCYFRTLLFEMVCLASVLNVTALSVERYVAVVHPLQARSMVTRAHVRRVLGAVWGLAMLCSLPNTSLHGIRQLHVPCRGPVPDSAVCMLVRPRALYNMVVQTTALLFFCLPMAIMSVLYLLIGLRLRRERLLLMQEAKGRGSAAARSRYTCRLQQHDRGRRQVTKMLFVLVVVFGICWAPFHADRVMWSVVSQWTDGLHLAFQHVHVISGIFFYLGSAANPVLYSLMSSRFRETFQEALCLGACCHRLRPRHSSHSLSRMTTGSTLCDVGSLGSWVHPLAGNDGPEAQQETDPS

T2: Human FM3 (human), Q9HB89
T2 chain: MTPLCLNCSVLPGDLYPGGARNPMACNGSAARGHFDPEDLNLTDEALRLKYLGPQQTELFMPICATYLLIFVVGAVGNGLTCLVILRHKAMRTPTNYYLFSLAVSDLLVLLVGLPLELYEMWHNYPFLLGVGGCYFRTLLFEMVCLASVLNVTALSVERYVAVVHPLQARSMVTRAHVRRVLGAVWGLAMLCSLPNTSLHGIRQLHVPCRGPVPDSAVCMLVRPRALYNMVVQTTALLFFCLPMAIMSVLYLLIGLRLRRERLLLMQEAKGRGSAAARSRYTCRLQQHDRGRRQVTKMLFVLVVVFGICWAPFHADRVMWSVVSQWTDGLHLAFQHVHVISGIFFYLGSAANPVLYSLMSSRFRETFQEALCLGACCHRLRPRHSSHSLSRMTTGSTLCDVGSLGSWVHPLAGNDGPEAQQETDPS


Experiments:
human TGR1 = target: T3, human TGR1 (human, UniProt Q9GZQ4 1-415); assay: displacement of 125I-NMU8 from human TGR1 CHO membrane fraction; IC50 relative to NMU-8;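 further: competitive binding on TGR1-expressing CHO cell membranes, with compounds tested as DMSO dilution series and incubated for 70 min at 25 °C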
T3 construct: whole, on cells; Assayed as the membrane fraction of TGR1-expressing CHO cells (1.1 mg/mL protein); also called NMUR2; TGR1 receptor
Experimental: 15 mL of homogenized buffer (10 mM NaHCO₃ (pH 7.4), 5 mM EDTA, protease inhibitor=0.5 mM PMSF, 10 μg/mL Pepstatin A, 20 μg/mL Leupeptin, and 4 μg/mL E-64) was added to the obtained cell pellets, the cellular membrane was disrupted using a polytron homogenizer (Kinematica GmbH), centrifugation was conducted for 10 minutes at 1,000 g at 4° C., and the supernatant was collected. This process was further repeated twice, and ultracentrifugation was conducted for 60 minutes at 30,000 rpm at 4° C. Thereafter, 8 mL of homogenized buffer was added to the pellets and suspended homogeneously to prepare a membrane fraction. The protein concentration of the FM3-expressing CHO cellular membrane fraction was 1.2 mg/mL, and the protein concentration of the TGR1-expressing CHO cellular membrane fraction was 1.1 mg/mL.
Specifically, each of the NMU derivatives and PEG conjugates was dissolved in DMSO so as to prepare 2 μL of each dilution series of the NMU derivatives and PEG conjugates. […] The resulting product was thoroughly mixed, and then a reaction was carried out at 25° C. for 70 minutes.

Human FM3 = target: T1, Human FM3; assay: displacement of 125I-NMU8 from human FM3 CHO membrane fraction; IC50 relative to NMU-8;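 further: binding reaction run for 70 min at 25 °C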
[1] = target: T2, Human FM3 (human), Q9HB89; assay: as above; details: remark: other sources report otherwise

T3 sequence (Q9GZQ4 whole entry): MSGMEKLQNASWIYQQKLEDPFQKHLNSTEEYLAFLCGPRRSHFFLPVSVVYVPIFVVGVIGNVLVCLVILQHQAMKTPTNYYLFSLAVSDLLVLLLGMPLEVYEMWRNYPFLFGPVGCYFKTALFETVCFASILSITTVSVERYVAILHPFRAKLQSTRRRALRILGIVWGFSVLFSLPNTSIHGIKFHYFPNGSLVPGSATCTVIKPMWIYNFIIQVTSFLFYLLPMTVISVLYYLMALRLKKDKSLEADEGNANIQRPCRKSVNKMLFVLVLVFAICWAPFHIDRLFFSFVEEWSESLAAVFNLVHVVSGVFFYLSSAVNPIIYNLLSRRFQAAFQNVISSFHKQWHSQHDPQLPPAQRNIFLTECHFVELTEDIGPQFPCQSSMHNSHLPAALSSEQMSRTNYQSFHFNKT

Row | Binder | IC50 ratio (human TGR1) | IC50 ratio (Human FM3) | IC50 ratio (ratio to NMU-8 (=1)) [1]
1 | [βAla]YF[Cha]FRPRN-NH2 (N-terminus assumed; SMILES N=C(N)NCCC[C@H](NC(=O)[C@@H]1CCCN1C(=O)[C@H](CCCNC(=N)N)NC(=O)[C@H](Cc1ccccc1)NC(=O)[C@H](CC1CCCCC1)NC(=O)[C@H](Cc1ccccc1)NC(=O)[C@H](Cc1ccc(O)cc1)NC(=O)CCN)C(=O)N[C@@H](CC(N)=O)C(N)=O, X stands for Cha) [β-Ala0,Cha3-NMU-8 (Compound 6)] | 9.9 ratio to NMU-8 (=1) | 0.55 ratio to NMU-8 (=1) | –
2 | {PEG 20 kDa-Acetyl(2-(piperazin-1-yl))}-FWLFRARN-NH2 (also called PEG20k-NPipAc-Phe1, Trp2,Ala6-NMU-8) [PEG20k-NpipAc0,Phe1,Trp2,Ala6-NMU-8 (Compound K)] | 34 ratio to NMU-8 (=1) | – | 11000
3 | [βAla]YFLFRP[Arg(Me)]N-NH2 (N-terminus assumed; SMILES CNC(=N)NCCC[C@H](NC(=O)[C@@H]1CCCN1C(=O)[C@H](CCCNC(=N)N)NC(=O)[C@H](Cc1ccccc1)NC(=O)[C@H](CC(C)C)NC(=O)[C@H](Cc1ccccc1)NC(=O)[C@H](Cc1ccc(O)cc1)NC(=O)CCN)C(=O)N[C@@H](CC(N)=O)C(N)=O) [β-Ala0,Arg(Me)7-NMU-8 (Compound 14)] | 3.6 ratio to NMU-8 (=1) | 6.3 ratio to NMU-8 (=1) | –
4 | [βAla]YF[NMeL]FRP[NMeR]N-NH2 (N-terminus assumed; SMILES CC(C)C[C@@H](C(=O)N[C@@H](Cc1ccccc1)C(=O)N[C@@H](CCCNC(=N)N)C(=O)N1CCC[C@H]1C(=O)N(C)[C@@H](CCCNC(=N)N)C(=O)N[C@@H](CC(N)=O)C(N)=O)N(C)C(=O)[C@H](Cc1ccccc1)NC(=O)[C@H](Cc1ccc(O)cc1)NC(=O)CCN) [β-Ala0,NMeLeu3,NMeArg7-NMU-8 (Compound 15)] | 19 ratio to NMU-8 (=1) | 8.6 ratio to NMU-8 (=1) | –
5 | {mPEG 30 kDa-βAla}-YF[Cha]FRPRN-NH2 (X stands for Cha; also called PEG-NH-β-Ala0,Cha3-NMU-8) [PEG30k-NH-β-Ala0,Cha3-NMU-8 (Compound F)] | 11 ratio to NMU-8 (=1) | 1.3 ratio to NMU-8 (=1) | –
6 | {mPEG 20 kDa-βAla}-[NMeY]F[NMeL]F[NMeR]PRN-NH2 [PEG20k-NH-β-Ala0,NMeTyr1,NMeLeu3,NMeArg5-NMU-8 (Compound P)] | 240 ratio to NMU-8 (=1) | 83 ratio to NMU-8 (=1) | –
7 | {mPEG 20 kDa-βAla}-YF[NMeL]FRP[NMeR]N-NH2 [PEG20k-NH-β-Ala0,NMeLeu3,NMeArg7-NMU-8 (Compound O)] | 170 ratio to NMU-8 (=1) | 75 ratio to NMU-8 (=1) | –
8 | {mPEG 20 kDa-Acetyl(2-(piperazin-1-yl))}-Y[2Nal]LFR[NMeA]RN-NH2 (X stands for Nal(2); also called PEG20k-NpipAc-Nal(2)2,NMeAla6-NMU8) [PEG20k-NpipAc0,Nal(2)2,NMeAla6-NMU-8 (Compound V)] | 27 ratio to NMU-8 (=1) | 10000 ratio to NMU-8 (=1) | –

Next, values leading:

Row | IC50 ratio (human TGR1) | IC50 ratio (Human FM3) | IC50 ratio (ratio to NMU-8 (=1)) [1] | Binder
9 | 1.7 ratio to NMU-8 (=1) | 99 ratio to NMU-8 (=1) | – | {Acetyl(2-(piperazin-1-yl))}-Y[2Nal]LFR[NMeA]RN-NH2 (SMILES CC(C)C[C@H](NC(=O)[C@H](Cc1ccc2ccccc2c1)NC(=O)[C@H](Cc1ccc(O)cc1)NC(=O)CN1CCNCC1)C(=O)N[C@@H](Cc1ccccc1)C(=O)N[C@@H](CCCNC(=N)N)C(=O)N(C)[C@@H](C)C(=O)N[C@@H](CCCNC(=N)N)C(=O)N[C@@H](CC(N)=O)C(N)=O, X stands for Nal(2); also called 2-(piperazin-1-yl)acetyl-[Nal(2)2,NMeAla6]-NMU8) [NpipAc0,Nal(2)2,NMeAla6-NMU-8 (Compound 22)]
10 | 1.9 ratio to NMU-8 (=1) | 900 ratio to NMU-8 (=1) | – | {Acetyl(2-(piperazin-1-yl))}-YWLFRARN-NH2 (SMILES CC(C)C[C@H](NC(=O)[C@H](Cc1c[nH]c2ccccc12)NC(=O)[C@H](Cc1ccc(O)cc1)NC(=O)CN1CCNCC1)C(=O)N[C@@H](Cc1ccccc1)C(=O)N[C@@H](CCCNC(=N)N)C(=O)N[C@@H](C)C(=O)N[C@@H](CCCNC(=N)N)C(=O)N[C@@H](CC(N)=O)C(N)=O, also called 2-(piperazin-1-yl)acetyl-[Trp2,Ala6]-NMU8) [NpipAc0,Trp2,Ala6-NMU-8 (Compound 20)]
11 | 29 ratio to NMU-8 (=1) | 9 ratio to NMU-8 (=1) | – | {mPEG 30 kDa-βAla}-YFLF[NMeR]PRN-NH2 [PEG30k-NH-β-Ala0,NMeArg5-NMU-8 (Compound M)]
12 | 63 ratio to NMU-8 (=1) | 290 ratio to NMU-8 (=1) | – | {mPEG 30 kDa-βAla}-YFLFRP[Arg(Me)]N-NH2 [PEG30k-NH-β-Ala0,Arg(Me)7-NMU-8 (Compound N)]
13 | 0.19 ratio to NMU-8 (=1) | – | 280 | {Acetyl(2-(piperazin-1-yl))}-FWLFRARN-NH2 (SMILES CC(C)C[C@H](NC(=O)[C@H](Cc1c[nH]c2ccccc12)NC(=O)[C@H](Cc1ccccc1)NC(=O)CN1CCNCC1)C(=O)N[C@@H](Cc1ccccc1)C(=O)N[C@@H](CCCNC(=N)N)C(=O)N[C@@H](C)C(=O)N[C@@H](CCCNC(=N)N)C(=O)N[C@@H](CC(N)=O)C(N)=O, also called 2-(piperazin-1-yl)acetyl-[Phe1,Trp2,Ala6]-NMU-8) [NpipAc0,Phe1,Trp2,Ala6-NMU-8 (Compound 11)]
14 | 47 ratio to NMU-8 (=1) | 1600 ratio to NMU-8 (=1) | – | {PEG 20 kDa-βAla}-YWLFR[NMeA]RN-NH2 [PEG20k-NH-β-Ala0,Trp2,NMeAla6-NMU-8 (Compound Q)]
15 | 3.8 ratio to NMU-8 (=1) | 0.59 ratio to NMU-8 (=1) | – | [βAla]PFLFRPRN-NH2 (N-terminus assumed; SMILES CC(C)C[C@H](NC(=O)[C@H](Cc1ccccc1)NC(=O)[C@@H]1CCCN1C(=O)CCN)C(=O)N[C@@H](Cc1ccccc1)C(=O)N[C@@H](CCCNC(=N)N)C(=O)N1CCC[C@H]1C(=O)N[C@@H](CCCNC(=N)N)C(=O)N[C@@H](CC(N)=O)C(N)=O) [β-Ala0,Pro1-NMU-8 (Compound 8)]
16 | 0.37 ratio to NMU-8 (=1) | 0.43 ratio to NMU-8 (=1) | – | [βAla]YFVFRPRN-NH2 (N-terminus assumed; SMILES CC(C)[C@H](NC(=O)[C@H](Cc1ccccc1)NC(=O)[C@H](Cc1ccc(O)cc1)NC(=O)CCN)C(=O)N[C@@H](Cc1ccccc1)C(=O)N[C@@H](CCCNC(=N)N)C(=O)N1CCC[C@H]1C(=O)N[C@@H](CCCNC(=N)N)C(=O)N[C@@H](CC(N)=O)C(N)=O) [β-Ala0,Val3-NMU-8 (Compound 4)]
17 | 0.17 ratio to NMU-8 (=1) | 0.44 ratio to NMU-8 (=1) | – | [βAla]YYLFRPRN-NH2 (N-terminus assumed; SMILES CC(C)C[C@H](NC(=O)[C@H](Cc1ccc(O)cc1)NC(=O)[C@H](Cc1ccc(O)cc1)NC(=O)CCN)C(=O)N[C@@H](Cc1ccccc1)C(=O)N[C@@H](CCCNC(=N)N)C(=O)N1CCC[C@H]1C(=O)N[C@@H](CCCNC(=N)N)C(=O)N[C@@H](CC(N)=O)C(N)=O, also called β-Ala0,Try2-NMU-8) [β-Ala0,Tyr2-NMU-8 (Compound 5)]
